Data as given in publication PMC5052685, “The RNA-binding protein vigilin regulates VLDL secretion through modulation of Apob mRNA translation”.

B1: Apob binding site WT (ssRNA)
RNA: GAUUUAACUCCACCUACUUCCAGGGC
B2: fetuin-A (Ahsg) binding site WT (ssRNA)
RNA: CUACCUCAAUAAUCAUCUUCUUCAGG

Molecular target: VIGILIN (Homo sapiens, UniProt Q00341 1-1268)
Assay: EMSA; 10 nM 32P-RNA, 0-10 uM protein, 250 mM KCl, 5 mM MgCl2, 25 mM Tris-HCl pH 7.5, 10% glycerol, 1 mg/ml acetylated BSA, 1.5 uM yeast tRNA, 25 C, 5 min; 1.2% agarose gel, 1x TBE
Conditions: protein: recombinant; tags: His6 (expressed from pETM30-vigilin-His6); label: 5' 32P

Chain of VIGILIN (Q00341 whole entry): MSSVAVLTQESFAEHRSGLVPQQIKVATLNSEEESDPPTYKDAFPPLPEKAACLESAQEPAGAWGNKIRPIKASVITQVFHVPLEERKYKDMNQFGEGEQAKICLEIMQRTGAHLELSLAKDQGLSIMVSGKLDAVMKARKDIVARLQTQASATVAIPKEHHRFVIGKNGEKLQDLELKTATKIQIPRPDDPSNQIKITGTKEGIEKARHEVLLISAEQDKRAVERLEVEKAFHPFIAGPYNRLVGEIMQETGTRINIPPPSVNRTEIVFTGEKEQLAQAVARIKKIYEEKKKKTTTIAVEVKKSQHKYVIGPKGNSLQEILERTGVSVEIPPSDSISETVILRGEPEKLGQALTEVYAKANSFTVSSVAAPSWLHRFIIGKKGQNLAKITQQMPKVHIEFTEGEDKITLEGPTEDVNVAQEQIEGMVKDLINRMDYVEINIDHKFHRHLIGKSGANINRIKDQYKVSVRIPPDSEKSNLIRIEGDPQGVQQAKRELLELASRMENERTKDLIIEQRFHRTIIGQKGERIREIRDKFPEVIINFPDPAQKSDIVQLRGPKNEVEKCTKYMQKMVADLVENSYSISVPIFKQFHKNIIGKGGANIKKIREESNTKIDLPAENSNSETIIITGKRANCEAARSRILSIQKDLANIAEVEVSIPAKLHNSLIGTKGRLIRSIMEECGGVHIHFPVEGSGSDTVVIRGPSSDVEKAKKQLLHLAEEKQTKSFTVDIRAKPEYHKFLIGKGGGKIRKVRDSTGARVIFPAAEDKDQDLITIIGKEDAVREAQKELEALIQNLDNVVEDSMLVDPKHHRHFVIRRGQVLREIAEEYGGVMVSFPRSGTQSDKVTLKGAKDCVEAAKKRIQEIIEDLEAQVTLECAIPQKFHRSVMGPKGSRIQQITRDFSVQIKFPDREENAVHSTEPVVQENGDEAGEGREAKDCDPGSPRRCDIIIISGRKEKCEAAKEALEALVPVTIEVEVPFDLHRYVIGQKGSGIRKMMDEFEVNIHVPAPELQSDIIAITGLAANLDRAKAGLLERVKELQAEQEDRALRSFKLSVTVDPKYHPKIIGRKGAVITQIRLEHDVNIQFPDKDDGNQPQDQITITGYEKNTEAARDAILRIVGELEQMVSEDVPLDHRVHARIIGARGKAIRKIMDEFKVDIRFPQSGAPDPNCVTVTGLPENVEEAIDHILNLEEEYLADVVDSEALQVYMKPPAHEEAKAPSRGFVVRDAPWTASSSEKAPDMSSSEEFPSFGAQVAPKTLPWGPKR

Binder | binding result
B1 | binds
B2 | binds
